The target in test [1] is human PD-L1 on PD-L1-expressing cells of human PBMC cultures (human, UniProt Q9NZQ7 19-290). Kind of test: cell-based or functional assay.
For test [2], the target named is T1, recombinant human PD-L1 on the surface of NS0/PD-L1 cells (PD-L1-FLAG-GPI) (human, UniProt Q9NZQ7 19-238). Kind of test: flow cytometry; blocking of the binding of FITC-labeled hPD-1-Fc to NS0/PD-L1 cells. The source says:
After washing with and suspending in FACS Buffer, cells were subjected to flow cytometry analysis.

Test [3] has as its target T2, human OX40 on the cell surface (JD/OX40 cells; OX40-expressing T cells) (human, UniProt P43489 29-277).
T2 construct: also called Jurkat Dual reporter cells expressing human OX40
T2 sequence: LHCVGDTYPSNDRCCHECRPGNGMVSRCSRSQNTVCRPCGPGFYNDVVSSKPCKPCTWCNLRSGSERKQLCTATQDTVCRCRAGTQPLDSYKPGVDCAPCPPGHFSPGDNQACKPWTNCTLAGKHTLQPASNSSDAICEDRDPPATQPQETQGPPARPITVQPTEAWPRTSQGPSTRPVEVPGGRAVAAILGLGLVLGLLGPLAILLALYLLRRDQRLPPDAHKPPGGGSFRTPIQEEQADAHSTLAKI
Kind of test: flow cytometry on JD/OX40 cells.

Test [4] concerns the target CD33 on the surface of HL-60 cells (human, UniProt P20138 18-364). Kind of test: cell-based or functional assay.
The target of test [5] is CD40 on the surface of Ramos cells (human, UniProt P25942 21-277). The test is described as follows: cell-based or functional assay.
The target of test [6] is recombinant human CD33 on the surface of NS0/CD33 cells (CD33-FLAG-GPI) (human). Kind of test: cell-based or functional assay.
The target of test [7] is T2, human OX40 on the cell surface (JD/OX40 …). Kind of test: cell-based or functional assay.
The target of test [8] is T3, human GITR (human, UniProt Q9Y5U5 26-161, limits assumed).
T3 construct: also called TNFRSF18; CD357
T3 sequence: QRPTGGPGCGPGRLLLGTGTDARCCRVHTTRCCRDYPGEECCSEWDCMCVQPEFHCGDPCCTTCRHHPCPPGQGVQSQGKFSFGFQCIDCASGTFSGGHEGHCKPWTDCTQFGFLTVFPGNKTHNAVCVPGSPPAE
Kind of test: ELISA.

Test [9] concerns the target T4, human PD-L1 (human, UniProt Q9NZQ7 19-238, limits assumed).
T4 construct: also called B7H1; CD274
The test is described as follows: ELISA.

Test [10] addresses T1, recombinant human PD-L1 on the surface …. Kind of test: cell-based or functional assay.
The target in test [11] is T5, human GITR on the cell surface (JD/GITR cells; GITR-expressing T cells) (human, UniProt Q9Y5U5 26-241).
T5 sequence: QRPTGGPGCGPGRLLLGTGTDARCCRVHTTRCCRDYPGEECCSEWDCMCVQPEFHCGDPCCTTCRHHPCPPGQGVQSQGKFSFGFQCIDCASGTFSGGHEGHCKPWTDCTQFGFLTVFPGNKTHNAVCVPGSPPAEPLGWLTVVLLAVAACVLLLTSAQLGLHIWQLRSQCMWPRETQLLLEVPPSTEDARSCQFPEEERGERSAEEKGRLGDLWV
Kind of test: cell-based or functional assay.

T1 sequence (Q9NZQ7 other isoform, or with tags, fused parts or gaps limits assumed): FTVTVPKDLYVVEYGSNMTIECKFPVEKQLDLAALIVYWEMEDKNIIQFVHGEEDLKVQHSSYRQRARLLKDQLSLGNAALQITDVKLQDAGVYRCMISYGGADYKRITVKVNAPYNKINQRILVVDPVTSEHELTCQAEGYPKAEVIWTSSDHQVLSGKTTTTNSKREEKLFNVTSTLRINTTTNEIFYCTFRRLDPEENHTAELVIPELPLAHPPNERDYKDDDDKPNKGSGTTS
Sequence of human PD-L1 on PD-L1-expressing cells of human PBMC cultures (Q9NZQ7 19-290 limits assumed): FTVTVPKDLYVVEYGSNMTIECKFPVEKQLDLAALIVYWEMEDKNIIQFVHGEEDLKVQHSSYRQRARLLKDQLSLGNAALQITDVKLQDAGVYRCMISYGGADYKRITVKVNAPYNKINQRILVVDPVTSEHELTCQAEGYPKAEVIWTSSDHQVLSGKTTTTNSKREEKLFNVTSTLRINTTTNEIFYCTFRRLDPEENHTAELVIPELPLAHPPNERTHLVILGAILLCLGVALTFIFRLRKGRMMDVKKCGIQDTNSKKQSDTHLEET
Sequence of CD40 on the surface of Ramos cells (P25942 21-277 limits assumed): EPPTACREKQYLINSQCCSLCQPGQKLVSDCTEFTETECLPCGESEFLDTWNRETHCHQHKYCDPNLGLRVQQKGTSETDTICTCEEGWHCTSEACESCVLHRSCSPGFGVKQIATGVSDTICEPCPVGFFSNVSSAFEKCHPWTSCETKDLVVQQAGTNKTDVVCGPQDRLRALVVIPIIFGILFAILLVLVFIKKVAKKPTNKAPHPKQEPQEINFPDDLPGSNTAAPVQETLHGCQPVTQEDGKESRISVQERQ
Sequence of CD33 on the surface of HL-60 cells (P20138 18-364 limits assumed): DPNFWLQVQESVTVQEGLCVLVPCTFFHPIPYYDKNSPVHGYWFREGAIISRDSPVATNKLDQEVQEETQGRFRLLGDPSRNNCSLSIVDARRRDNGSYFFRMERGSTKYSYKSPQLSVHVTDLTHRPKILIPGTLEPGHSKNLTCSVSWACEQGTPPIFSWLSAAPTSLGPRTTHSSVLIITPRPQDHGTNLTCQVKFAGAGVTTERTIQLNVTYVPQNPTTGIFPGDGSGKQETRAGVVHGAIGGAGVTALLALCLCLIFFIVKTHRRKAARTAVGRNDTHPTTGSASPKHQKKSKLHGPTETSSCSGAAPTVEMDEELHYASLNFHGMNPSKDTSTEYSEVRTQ
T4 sequence (Q9NZQ7 19-238 limits assumed): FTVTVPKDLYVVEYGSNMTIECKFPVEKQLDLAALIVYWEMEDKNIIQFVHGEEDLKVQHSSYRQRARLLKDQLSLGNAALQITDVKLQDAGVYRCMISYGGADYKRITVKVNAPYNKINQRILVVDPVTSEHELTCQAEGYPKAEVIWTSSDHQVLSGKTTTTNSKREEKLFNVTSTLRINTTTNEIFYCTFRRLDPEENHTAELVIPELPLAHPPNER
Sequence of recombinant human CD33 on the surface of NS0/CD33 cells (CD33-FLAG-GPI) (human) (chain, as listed by the source limits assumed): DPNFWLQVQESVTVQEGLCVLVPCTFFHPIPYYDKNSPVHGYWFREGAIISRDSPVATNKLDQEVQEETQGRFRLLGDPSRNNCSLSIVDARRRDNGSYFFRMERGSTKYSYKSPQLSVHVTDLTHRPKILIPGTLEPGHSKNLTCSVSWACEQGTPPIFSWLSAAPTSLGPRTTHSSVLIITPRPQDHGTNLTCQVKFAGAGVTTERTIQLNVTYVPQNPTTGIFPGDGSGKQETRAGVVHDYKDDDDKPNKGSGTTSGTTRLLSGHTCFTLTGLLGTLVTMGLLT

B1: HuPRO1-IgG1.AA (antibody, V domains shown)
VH: QVQLVQSGAEVKKPGSSVKVSCKASGFTFSSSYISWVRQAPGQGLEWIAWIYAGTGGTSYNQKFTGRATITVDESTSTAYMELSSLRSEDTAVYYCARHEGVYWYFDVWGQGTTVTVSS
VL: EIVLTQSPATLSLSPGERATLSCSASSSVSYMHWYQQKPGQAPRPWIYDTSNLASGFPARFSGSGSGTDFTLTISSLEPEDFAVYYCHQRSSYPWTFGGGTKVEIKR
notes: Humanized IgG1/kappa with L234A/L235A; Heavy chain built from VH and the constant exons of pHuM195-IgG1; also called humanized PRO1; anti-PD-L1
Regarding B1, the “average IL-2 concentration in PBMC-derived T cells of donor 4143, 1 µg/ml antibody” value in [1] was found to be 1450 pg/mL. The IC50 in [2] came out at 0.106 µg/mL.

B2: HuM195-IgG1 (antibody, V domains shown)
VH: QVQLVQSGAEVKKPGSSVKVSCKASGYTFTDYNMHWVRQAPGQGLEWIGYIYPYNGGTGYNQKFKSKATITADESTNTAYMELSSLRSEDTAVYYCARGRPAMDYWGQGTLVTVSS
VL: DIQMTQSPSSLSASVGDRVTITCRASESVDNYGISFMNWFQQKPGGAPKLLIYAASNQGSGVPSRFSGSGSGTDFTLTISSLQPDDFATYYCQQSKEVPWTFGQGTKVEIKR
notes: Humanized IgG1/kappa, wild-type CH2; also called humanized anti-CD33 IgG1/kappa antibody; anti-CD33
Take B2: the binding result in test [3] is “no binding”.

B3: BS828 (bispecific antibody, human IgG1, kappa, L234A L235A)
heavy: not shown
light: DIQMTQSPSSLSASVGDRVTITCRASESVDNYGISFMNWFQQKPGGAPKLLIYAASNQGSGVPSRFSGSGSGTDFTLTISSLQPDDFATYYCQQSKEVPWTFGQGTKVEIKRTVAAPSVFIFPPSDEQLKSGTASVVCLLNNFYPREAKVQWKVDNALQSGNSQESVTEQDSKDSTYSLSSTLTLSKADYEKHKVYACEVTHQGLSSPVTKSFNRGEC
In the case of B3, the “percentage of CD95-positive population among Ramos cells, 0.5 µg/ml antibody, in the presence of HL-60 cells” value in [4] and in [5] was 58.4% throughout.

B4: BS824 (bispecific antibody, human IgG1, kappa, L234A L235A)
heavy: not shown
light: DIQMTQSPSSLSASVGDRVTITCRASESVDNYGISFMNWFQQKPGGAPKLLIYAASNQGSGVPSRFSGSGSGTDFTLTISSLQPDDFATYYCQQSKEVPWTFGQGTKVEIKRTVAAPSVFIFPPSDEQLKSGTASVVCLLNNFYPREAKVQWKVDNALQSGNSQESVTEQDSKDSTYSLSSTLTLSKADYEKHKVYACEVTHQGLSSPVTKSFNRGEC
As to B4, the “average relative luciferase unit (RLU) in JD/OX40 cells, 1 µg/ml antibody, with NS0/CD33 cells” value in [6] and in [7] was 21700 RLU in each case.

B5: HuPRO2-IgG1.AA (antibody, V domains shown)
VH: VQLVQSGAEVKKPGSSVKVSCKASGYTFTSYGINWVRQAPGQGLEWIGYIYPGSGGPVYNQKFKGRVTLTADKSTSTAYMELSSLRSEDTAVYYCARENYRYWYFDVWGQGTTVTVSS
VL: DIQLTQSPSFLSASVGDRVTITCSASSSVNYMHWFQQKPGKAPKLWIYSTSNLASGVPSRFSGSGSGTEFTLTISSLQPEDFATYYCQQRSSYPLTFGGGTKVEIKR
notes: Humanized IgG1/kappa with L234A/L235A; also called humanized PRO2; Anti-PD-L1 #2
Regarding B5, in test [2], the IC50 worked out at 0.055 µg/mL.

B6: HuOHX14DS-IgG1.AA (antibody, V domains shown)
VH: QVQLVQSGAEVKKPGSSVKVSCKASGYTFTSYIMHWVRQAPGQGLEWIGYINPYNSGTKYNEKFKGRVTITSDKSTSTAYMELSSLRSEDTAVYYCAHYYGSTFTMDYWGQGTTVTVSS
VL: DIQMTQSPSSLSASVGDRVTITCRASQDIRTYLNWYQQKPGKVPKLLIYYTSRLHSGVPSRFSGSGSGTDYTLTISSLQPEDVATYYCQQGNTLPWTFGGGTKVEIKR
B6: in test [7], the “average relative luciferase unit (RLU) in JD/OX40 cells, 1 µg/ml antibody, with NS0/CD33 cells” value was found to be 8700 RLU and the “average relative luciferase unit (RLU) in JD/OX40 cells, 1 µg/ml antibody, with NS0/PD-L1 cells” value is 5920 RLU.

B7: HuPRO5-IgG1.AA (antibody, V domains shown)
VH: QVQLQESGPGLVKPSQTLSLTCTVSGDSISSGYWNWIRQPPGKGLEYMGYISYTGSTYSNPSLKSRVTISRDTSKNQFSLKLSSVTAADTAVYYCARSQNWERAWFAYWGQGTLVTVSS
VL: DIQMTQSPSSLSASVGDRVTITCSASSSVSYMHWYQQKPGKAPKLWIYDTSKLASGVPSRFSGSGSGTDFTLTISSLQPEDFATYYCFQGSGYPFTFGGGTKVEIKR
notes: also called humanized PRO5; Anti-PD-L1 #5
For the molecule B7, the IC50 in test [2] came to 0.087 µg/mL.

B8: BS853 (bispecific antibody, human IgG1, kappa, L234A L235A)
heavy: not shown
light: EIVLTQSPATLSLSPGERATLSCSASSSVSYMHWYQQKPGQAPRPWIYDTSNLASGFPARFSGSGSGTDFTLTISSLEPEDFAVYYCHQRSSYPWTFGGGTKVEIKRTVAAPSVFIFPPSDEQLKSGTASVVCLLNNFYPREAKVQWKVDNALQSGNSQESVTEQDSKDSTYSLSSTLTLSKADYEKHKVYACEVTHQGLSSPVTKSFNRGEC
notes: Transiently expressed in HEK293 cells; Cysteines at position 44 of VH and 100 of VL of the anti-GITR scFv; also called modified bispecific antibody encoded in pBS853; BS809 with disulfide-linked anti-GITR scFv
In the case of B8, the binding result in test [8] and in [9] was “binds” throughout.

B9: BS813 (bispecific antibody, human IgG1, kappa, L234A L235A)
heavy: not shown
light: EIVLTQSPATLSLSPGERATLSCSASSSVSYMHWYQQKPGQAPRPWIYDTSNLASGFPARFSGSGSGTDFTLTISSLEPEDFAVYYCHQRSSYPWTFGGGTKVEIKRTVAAPSVFIFPPSDEQLKSGTASVVCLLNNFYPREAKVQWKVDNALQSGNSQESVTEQDSKDSTYSLSSTLTLSKADYEKHKVYACEVTHQGLSSPVTKSFNRGEC
With B9, the “average relative luciferase unit (RLU) in JD/OX40 cells, 1 µg/ml antibody, with NS0/PD-L1 cells” value in test [10] worked out at 23700 RLU. In test [7], the “average IL-2 concentration in human PBMC-derived T cells (PHA-L-treated, OKT3-coated plate), 1 µg/ml antibody” value is 2200; the “average IL-2 concentration, SEB-treated human PBMC, 1 µg/ml antibody” value was 17.7 ng/mL; the “average relative luciferase unit (RLU) in JD/OX40 cells, 1 µg/ml antibody, with NS0/PD-L1 cells” value turned out to be 23700 RLU. For the same molecule, in test [1], the “average IL-2 concentration in human PBMC-derived T cells (PHA-L-treated, OKT3-coated plate), 1 µg/ml antibody” value came to 2200 and the “average IL-2 concentration, SEB-treated human PBMC, 1 µg/ml antibody” value was found to be 17.7 ng/mL.

B10: BS809 (bispecific antibody, human IgG1, kappa, L234A L235A)
heavy: not shown
light: EIVLTQSPATLSLSPGERATLSCSASSSVSYMHWYQQKPGQAPRPWIYDTSNLASGFPARFSGSGSGTDFTLTISSLEPEDFAVYYCHQRSSYPWTFGGGTKVEIKRTVAAPSVFIFPPSDEQLKSGTASVVCLLNNFYPREAKVQWKVDNALQSGNSQESVTEQDSKDSTYSLSSTLTLSKADYEKHKVYACEVTHQGLSSPVTKSFNRGEC
For B10, the “average IL-2 concentration in PBMC-derived T cells of donor 4143, 1 µg/ml antibody” value in test [11] and in test [1] was 4200 pg/mL in each case. Besides, the “average relative luciferase unit (RLU) in the culture supernatants of JD/GITR cells, 1 µg/ml antibody, with NS0/PD-L1 cells” value in test [11] and in test [10] was 1.04e+06 RLU in each case.

B11: BS841 (bispecific antibody, human IgG1, kappa, L234A L235A)
heavy: not shown
light: DIQLTQSPSFLSASVGDRVTITCSASSSVNYMHWFQQKPGKAPKLWIYSTSNLASGVPSRFSGSGSGTEFTLTISSLQPEDFATYYCQQRSSYPLTFGGGTKVEIKRTVAAPSVFIFPPSDEQLKSGTASVVCLLNNFYPREAKVQWKVDNALQSGNSQESVTEQDSKDSTYSLSSTLTLSKADYEKHKVYACEVTHQGLSSPVTKSFNRGEC
Turning to B11, in test [7], the “average IL-2 concentration in human PBMC-derived T cells (PHA-L-treated, OKT3-coated plate), 1 µg/ml antibody” value was 1700 and the “average IL-2 concentration, SEB-treated human PBMC, 1 µg/ml antibody” value was found to be 16.5 ng/mL. Further, in [1], the “average IL-2 concentration in human PBMC-derived T cells (PHA-L-treated, OKT3-coated plate), 1 µg/ml antibody” value turned out to be 1700 and the “average IL-2 concentration, SEB-treated human PBMC, 1 µg/ml antibody” value worked out at 16.5 ng/mL.

B12: HuACS2-IgG1.AA (antibody, V domains shown)
VH: QVQLVQSGAEVKKPGSSVKVSCKASGYTFTSYWLHWVRQAPGQGLEWIGRIDPNSGDTKYNEKFKSRATITVDKSTSTAYMELSSLRSEDTAVYYCARYYYGRSYFDYWGQGTTVTVSS
VL: IVLTQSPATLSLSPGERATLSCSASSSVSYMHWYQQKPGQAPRRWIYDTSKLASGVPARFSGSGSGTDYTLTISSLEPEDFAVYYCQQWSSNPLTFGGGTKVEIKR
Take B12: in test [5], the “percentage of CD95-positive population among Ramos cells, 0.5 µg/ml antibody, in the presence of HL-60 cells” value was determined as 0.7%.

For the origin of these results see US20220251214A1 (JN BIOSCIENCES, published 2022).
